Test: soluble on expression in E. coli; label from the status in PepcDB or PDB records

Sequence | soluble on expression in E. coli
MPGIDKLPIEETLEDSPQTRSLLGVFEEDATAISNYMNQLYQAMHRIYDAQNELSAATHLTSKLLKEYEKQRFPLGGDDEVMSSTLQQFSKVIDELSSCHAVLSTQLADAMMFPITQFKERDLKEILTLKEVFQIASNDHDAAINRYSRLSKKRENDKVKYEVTEDVYTSRKKQHQTMMHYFCALNTLQYKKKIALLEPLLGYMQAQISFFKMGSENLNEQLEEFLANIGTSVQNVRREMDSDIETMQQTIEDLEVASDPLYVPDPDPTKFPVNRNLTRKAGYLNARNKTGLVSSTWDRQFYFTQGGNLMSQARGDVAGGLAMDIDNCSVMAVDCEDRRYCFQITSFDGKKSSILQAESKKDHEEWICTINNISKQIYLSENPEETAARVNQSALEAVTPSPSFQQRHESLRPAAGQSRPPTARTSSSGSLGSESTNLAALSLDSLVAPDTPIQFDIISPVCEDQPGQAKAFGQGGRRTNPFGESGGSTKSETEDSILHQLFIVRFLGSMEVKSDDHPDVVYETMRQILAARAIHNIFRMTESHLLVTCDCLKLIDPQTQVTRLTFPLPCVVLYATHQENKRLFGFVLRTSSGRSESNLSSVCYIFESNNEGEKICDSVGLAKQIALHAELDRRASEKQKEIERVKEKQQKELNKQKQIEKDLEEQSRLIAASSRPNQASSEGQFVVLSSSQSEESDLGEGGKKRESEA | soluble
MPHMSEPQRLFFAIDLPAEIREQIIHWRATHFPPEAGRPVAADNLHLTLAFLGEVSAEKEKALSLLAGRIRQPGFTLTLDDAGQWLRSRVVWLGMRQPPRGLIQLANMLRSQAARSGCFQSNRPFHPHITLLRDASEAVTIPPPGFNWSYAVTEFTLYASSFARGRTRYTPLKRWALTQ | not soluble
MPHPCLSCGACCAYFRVSFHWSEADPALGGNVPIELTEPLRIHERVMHGTSQSHPRCIALDAEIGYRSRCTIHERRPSVCAAVPASLEFGTRSQQCDTSRRAHGLHLLTEADWAGVTNTERNPLPNELEHHHHHH | soluble
MPIDAMSDRNHAFASDEPPEIQVHPHDRYHAVIKKCASLPPLVTAVVHPVDSQVLSAVSDAVMEKLITPLLVGPAGRIEKAADEAGIDLSKWQVIDTPHSHAAAEKAVELAAAREVGAIMKGSLHTDELLGPIVARGSGLRTGRRLSHAYVMDTAGYHKWLIVTDAVVNISPDLCAKADICRNAVDAWVALTGESCLPKIAVLAAVEVVNAAMQATLDAAALCKMAERGQITGCIIDGPLAFDNAISRQAAKEKHIVSQVAGDADILLAPDIEAGNILAKQLTFISHADAAGVVMGAKVPVILTSRADNLRTRLLSCALAVLVQRAKEEGRIK | soluble
MPIGNLGHNPNVNNSIPPAPPLPSQTDGAGGRGQLINSTGPLGSRALFTPVRNSMADSGDNRASDVPGLPVNPMRLAASEITLNDGFEVLHDHGPLDTLNRQIGSSVFRVETQEDGKHIAVGQRNGVETSVVLSDQEYARLQSIDPEGKDKFVFTGGRGGAGHAMVTVASDITEARQRILELLEPKGTGESKGAGESKGVGELRESNSGAENTTETQTSTSTSSLRSDPKLWLALGTVATGLIGLAATGIVQALALTPEPDSPTTTDPDAAASATETATRDQLTKEAFQNPDNQKVNIDELGNAIPSGVLKDDVVANIEEQAKAAGEEAKQQAIENNAQAQKKYDEQQAKRQEELKVSSGAGYGLSGALILGGGIGVAVTAALHRKNQPVEQTTTTTTTTTTTSARTVENKPANNTPAQGNVDTPGSEDTMESRRSSMASTSSTFFDTSSIGTVQNPYADVKTSLHDSQVPTSNSNTSVQNMGNTDSVVYSTIQHPPRDTTDNGARLLGNPSAGIQSTYARLALSGGLRHDMGGLTGGSNSAVNTSNNPPAPGSHRFV | not soluble
MPKASQETKGLGSYDPKSATEKKFVITHRIKNISTLNIGNTYTSDVEDHFGFLWHLSYIYDGRFLRTTLNIDVNGRSALWSVGMKVRHMFVTKNGADHFHNSTDHVFSQEHNYGLTAITFFEDIKNKIFDDDMVYVDVEVTITKTSGFDRKKLRNFDTPENDWHVVLVAGGQKFYARTVVICNPNTDICELDVARGTEIVLENEDPLDLQIFLEALHGEDVISDTTLEIILLLAIKYRAIEIFSKCEKWLLEGSKMSPRKQLQMAIRCSFWELEQKCLSELKTKQDIQAVLPANLMSLDPNMVLTLFEKLLTVT | soluble
MPKIAEIEGTPNPNALKFVLKEPLTWGVAKSYDHAEQAVDDPLAAALFDIDHVTNVFYVDRWITITQDGGADWQDLAREVADPIRAAPAATDQSAAVVAAASRTLADLSEEDQQRLERINILLDEEVRPFLQHDGGDLHVLALEGNILRIHYQGACGTCPSSISGTLRGIEQLLRTIEPDIRVVSA | not soluble
MPKIISKRKFNILRKTKEEIFSQIVYTKKRNGLHKAAKEYYFKDKDFTIIEDQQDRPDKPEELDTPDIPKPPKPPKGPDQPEEPGQPGGPDDPNSGNKKMPKPDEFVTHRQLQEFKKDLLVELHEIFPTKPELKRVEEKVDVLFELQKAQGEQIRIQGEQIKELKVEQKAQGETLQLILQTLQKMNDRLDKIEGKMDKMESRMDKMETRLDKLESK | soluble
MPKIRIKLRGFDHKTLDASAQKIVEAARRSGAQVSGPIPLPTRVRRFTVIRGPFKHKDSREHFELRTHNRLVDIINPNRKTIEQLMTLDLPTGVEIEIKTVGGGR | soluble
MPKIVILPHQDLCPDGAVLEANSGETILDAALRNGIEIEHACEKSCACTTCHCIVREGFDSLPESSEQEDDMLDKAWGLEPESRLSCQARVTDEDLVVEIPRYTINHAREH | soluble
MPKKFASENPKVTAARDRKATAKKDEADKKAKATEDAKWVDNDKLNNRKMQRKEDDEKKREEALRRKEENRKLAEEEMSSLGNKKPAGAATQKVTRAHIHIRKEDEERINRELEEKRKQEAQKIEVAGDLLVENLNKLEVEEGEARNVDDALKVLGEEKALDDDKHPEKRMRAAYLAFEEARLPELKLNHPTFRLSQLKQILKKEWQKSPENPLNARLLALNS | soluble
MPKKPLIDQLHHEDSWRLFRILAEFVEGFETLSELQVPLVSVFGSARFGEGHPAYEAGYRLGRALAEAGFGVVTGGGPGVMEAVNRGAYEAGGVSVGLNIELPHEQKPNPYQTHALSLRYFFVRKVLFVRYAVGFVFLPGGFGTLDELSEVLVLLQTEKVHRFPVFLLDRGYWEGLVRWLAFLRDQKAVGPEDLQLFRLTDEPEEVVQALKAEAPPR | soluble
MPKRTDIKSILILGAGPIVIGQACEFDYSGAQACKALREEGYRVILVNSNPATIMTDPEMADATYIEPIHWEVVRKIIEKERPDAVLPTMGGQTALNCALELERQGVLEEFGVTMIGATADAIDKAEDRRRFDVAMKKIGLETARSGIAHTMEEALAVAADVGFPCIIRPSFTMGGSGGGIAYNREEFEEICARGLDLSPTKELLIDESLIGWKEYEMEVVRDKNDNCIIVCSIENFDAMGIHTGDSITVAPAQTLTDKEYQIMRNASMAVLREIGVETGGSNVQFAVNPKNGRLIVIEMNPRVSRSSALASKATGFPIAKVAAKLAVGYTLDELMNDITGGRTPASFEPSIDYVVTKIPRFNFEKFAGANDRLTTQMKSVGEVMAIGRTQQESLQKALRGLEVGATGFDPKVSLDDPEALTKIRRELKDAGADRIWYIADAFRAGLSVDGVFNLTNIDRWFLVQIEELVRLEEKVAEVGITGLNADFLRQLKRKGFADARLAKLAGVREAEIRKLRDQYDLHPVYKRVDTCAAEFATDTAYMYSTYEEECEANPSTDREKIMVLGGGPNRIGQGIEFDYCCVHASLALREDGYETIMVNCNPETVSTDYDTSDRLYFEPVTLEDVLEIVRIEKPKGVIVQYGGQTPLKLARALEAAGVPVIGTSPDAIDRAEDRERFQHAVERLKLKQPANATVTAIEMAVEKAKEIGYPLVVRPSYVLGGRAMEIVYDEADLRRYFQTAVSVSNDAPVLLDHFLDDAVEVDVDAICDGEMVLIGGIMEHIEQAGVHSGDSACSLPAYTLSQEIQDVMRQQVQKLAFELQVRGLMNVQFAVKNNEVYLIEVNPRAARTVPFVSKATGVPLAKVAARVMAGKSLAEQGVTKEVIPPYYSVKEVVLPFNKFPGVDPLLGPEMRSTGEVMGVGRTFAEAFAKAQLGSNSTMKKHGRALLSVREGDKERVVDLAAKLLKQGFELDATHGTAIVLGEAGINPRLVNKVHEGRPHIQDRIKNGEYTYIINTTSGRRAIEDSRVIRRSALQYKVHYDTTLNGGFATAMALNADATEKVISVQEMHAQIK | soluble
MPKSFYFCKTLERLTLSDKILVDVPCQVSLPSLRELDLFCVVYKDEDSHVKLLSSCPVLKHLKVTRNRRVEDNVRTFRVEVPSLLRLDYKAGMMFREDSDMSDPFLVTDTPNLLSLHIFDTVGYSLSVWYMPHLVTVVTDELFPSEKFMRPLSSVKYLALSPFDTMVPWCDAVNNYSRLVECMIHLSEYDLLESLLVLLSKCSKLKVFLVDSDIPRWNHDPALWNQPSSIPRCLSSHLEIFEWDGYVGREDEKKIIRYILENSKYLKTAGISPNSTFSGEEKQKMEELESMHRTPTSVLLSSARMSFRY | not soluble
MPKSLYNYHEFIHLSHDGRIPFEKIEVPKNAILLNNSADLDNYVYLIIDGYVALFLNDGKEQPKIYSIQGEGAFLNYFTLLDHSINRFRYKTLSKCFLYRYSKLDIEYFLSMFPENFGFQFFIMKNQTTHIYFKSLMASSPASEKLMLTFSNLARLHGIPTEDDTVILPPAIKTSHLLSYSNLSKSCFYKDLQYLKTTNQIEKQDNSWIIHNKELNLMLQNGETYI | not soluble
MPKVYNSIVVDAPVERVWSRIRNFHDFSWAPSLIKSCKKVGGGGGYSVGARRLLNGEFLDTLIAYSEIERRIMYSMDEGPSPVSSGEIYNYVGNLHLLPVTIDDTTFVEWSGSWESASTEAVEYMNTVYRSLLADLAAEFTSESRRSEWIDQLEHHHHHH | soluble
MPLDSPAKLEFPLHWAVYVDCKDELNELLKNKSTLEIDKIDPRGRTPLMLAVTLQHFDCARLLMDAGADASIPNKEMWSVSNEAVAQGNEQFIQEVIHHRDYQRANRGAHAMKRSLEKLAEVPDFFCEMNWDFSSWVPFLSQACPSDCHKIYKRGSSVRIDTTLVSFEGASWVRGNQSYIFRLSRNGYAEFIVLDHDERIAAVQELRDDDIFNEYRPLPSALDDRLRNTISTTYIDVENIGFERTSRGFLSWFSSGETNETVDGYDCKVLNASNVHLVTKRRFDHLSSEARARLAQEEASESKAVTSFKKMMSTNKTDENTTRDLYEEGLSPDSYLDPHYEFDTGCDIGKRREVVKKSNAFQATLWMADEYPLNLHDQIIPIVELMAVNSPHFARLHNFIRLQLPAGFPVKIEIPLFHIVSARIAFQNINSPGKHVTPIDNQNVDIEEEAFEIPDGYAIDDDGRYGITWEDDDDRNNRNNRNQVANGNTSRRGLGNNYSDDMLLQYAIQQSLLESTARQPSRVQEEEYVDILEQIESVPVNPETDFYRAIRDSQVEEDRRRREDEQYEEDLRKVLELSKAEQ | not soluble
MPLEGEYEPSPTQWVRDQVELYESSGGTKGTTLMDTGLPVIILTTLGAKSGKIRKTPLMRVEHDGKYAAVASLGGAPKHPVWYYNVLGTPAVELQDGAVRKEFTAREVTGEEKAQWWERAVAAYPPYAEYQEKTDREIPVFVLEPAG | not soluble
MPLFKERNCSVSIVLDSRTRRKNAYEFPLSLRFTIDRKFFYLTVGSSFSEKKFSDICNATKCKSENYKLQKEWKDTFVPKYKKVLSNLNKGGILTFEMVRQCIIGEDVVLSEEETTKSQSFISIWEQVINGFKTDDGGARFTTAESYECALKSFRKILGANTIKGFCISAAEIQKWKDGMHNGVKDENGAVVGKISDTTVGIYLRCCRAVWNRCVHEGFLKDIPYPFSNKKEKGLVSIPKSAKRKQNFLNVAQMTELYNLFVSKEYPEHWTEEYTQRAHYSLGLFLAQYLCNGFNMADAGRLTYDNYYYKTDGKAFRFNRKKTSRRSADGSEVIVPIIPPLQYVLDEIAAPPTRDGFVFPDILKGAETEELRRKYTVQENSNVKDRVIKICHEALHWDKSICPSGTWCRHSFATNLHNAGVDMDYISESMGHASSDHAITQIYIEHYPLDIQMQNNSKLLNLGETSERDALLAKLANMSTEELAKLFA | not soluble
